Target: Amyloid Beta (antigen of the Amyloid Beta ELISA) (UniProt P05067 672-713, limits assumed)
Experiment: Amyloid Beta ELISA, purified antibodies

Amyloid Beta (antigen of the Amyloid Beta ELISA), sequence (P05067 672-713 limits assumed): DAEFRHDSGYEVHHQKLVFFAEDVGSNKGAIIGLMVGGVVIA

- fold reduction of binding activity against the chimeric control antibody C2 ChVHAF/ChVK: ~2 fold
B1: humanized antibody C2 HuVH2/HuVK3 (antibody, V domains shown)
VH: EVQLVESGGGLVQPGGSLRLSCAASGFTFSSYGMSWVRQAPGKGLEWVASINSNGGSTYYPDSVKGRFTISRDNAKNSLYLQMNSLRAEDTAVYYCASGDYWGQGTTVTVSS
VL: DIVMTQSPLSLPVTPGEPASISCRSSQSLVYSNGDTYLHWYLQKPGQSPKLLIYKVSNRFSGVPDRFSGSGSGTDFTLKISRVEAEDVGVYYCSQSTHVPWTFGQGTKVEIKR

From patent EP3988566A1 (AC Immune SA, dated 2022)
